System: K4 kissing-loop RNA reporter
Assay: apparent KD of K4 kissing-loop reporter; higher = weaker reporter binding
Settings: Eterna round: R107
Method: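 RNA-MaP round R107: designed RNA switches with theophylline, tryptophan, arginine or FMN aptamers are transcribed on-chip within common flanks. They are titrated with a labelled K4 kissing-loop RNA reporter in RNA-MaP buffer (100 mM Tris pH 7.5, 80 mM KCl, 4 mM MgCl2), without ligand or with the indicated ligand. Median apparent KD per design.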

[1] = input ligand: theophylline 20 uM
[2] = input ligand: tryptophan 2.4 mM
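Also: bound reporter read as fluorescence of individual clusters on recovered sequencing chips by microscopy, with normalized cluster intensities fitted with a binding model.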

## AGCUUGGGUUCGGCCGCCACUCCACCCUUAGAAGUGAUGUUUCUCAUGCAUACGCGUCGUCAGAUGAGGACCGGGAAUGUAGUUG [theeternabot_exclusion_KL_Trp_B_24]
Input ligand: FMN 200 uM
  apparent KD of K4 kissing-loop reporter: 0.209 µM
Input ligand: arginine 13.2 mM
  apparent KD of K4 kissing-loop reporter: 0.444 µM
Input ligand: none
  apparent KD of K4 kissing-loop reporter: 0.354 µM
[1]
  apparent KD of K4 kissing-loop reporter: 0.351 µM
[2]
  apparent KD of K4 kissing-loop reporter: 0.214 µM

## AGGAGCGUGCGAUGGAAAUCGCACGCUCCUCGAGGACCGGUACGGCCGCCACUCGCUCGCGCCGAGUGAUGUUCGGCCGGCGAAG [#2 Same State - Tryptophan A Attempt #16 (HarryS)]
Input ligand: FMN 200 uM
  apparent KD of K4 kissing-loop reporter: 0.0856 µM
Input ligand: arginine 13.2 mM
  apparent KD of K4 kissing-loop reporter: 0.128 µM
Input ligand: none
  apparent KD of K4 kissing-loop reporter: 0.0857 µM
[1]
  apparent KD of K4 kissing-loop reporter: 0.0586 µM
[2]
  apparent KD of K4 kissing-loop reporter: 0.0828 µM

## AGGAUCCGUCGACAAAAGUCGACAUAAUCCAAGGAUAUGACGAAAGUCAGAAGGUGGACAUAAGUCCAGUGAUGUUGGAGGAUCC [FmnA 16 #SwitchBubble #K4Late]
Input ligand: FMN 200 uM
  apparent KD of K4 kissing-loop reporter: 0.766 µM
Input ligand: arginine 13.2 mM
  apparent KD of K4 kissing-loop reporter: 0.283 µM
Input ligand: none
  apparent KD of K4 kissing-loop reporter: 0.427 µM
[1]
  apparent KD of K4 kissing-loop reporter: 0.557 µM
[2]
  apparent KD of K4 kissing-loop reporter: 0.351 µM

## AGGAUGUAGUGAUGUUAUAUAAGAAGUAAACGAGGACCGGUACGGCCGCCACUCGAAGCGGCUACUAGCGCGUUGCGAGGUGCGC [ExTryptoA.Cc]
Input ligand: FMN 200 uM
  apparent KD of K4 kissing-loop reporter: 0.391 µM
Input ligand: arginine 13.2 mM
  apparent KD of K4 kissing-loop reporter: 0.451 µM
Input ligand: none
  apparent KD of K4 kissing-loop reporter: 0.372 µM
[1]
  apparent KD of K4 kissing-loop reporter: 0.37 µM
[2]
  apparent KD of K4 kissing-loop reporter: 0.286 µM

## AGGCACGAGCAAGGAUAUCGAGUGGAGUGAUGUUCUGCCGACCCAGGACCGCAAGGUCCUGGGUCGCGAGAAGGUGCUCGUGCCU [#2 Same State - FMN A Attempt #5 (HarryS)]
Input ligand: FMN 200 uM
  apparent KD of K4 kissing-loop reporter: 0.254 µM
Input ligand: arginine 13.2 mM
  apparent KD of K4 kissing-loop reporter: 0.642 µM
Input ligand: none
  apparent KD of K4 kissing-loop reporter: 0.73 µM
[1]
  apparent KD of K4 kissing-loop reporter: 0.676 µM
[2]
  apparent KD of K4 kissing-loop reporter: 0.685 µM

## AGGGCGGAGUGAUGUUCCGGCUCCCGAUUUAAGGAUAUUGCGUAAACAAGAAGGUAAAGGCGCAGCAAUAUUAUUUCGUAAGGCG [theeternabot_exclusion_KL_FMN_A_23]
Input ligand: FMN 200 uM
  apparent KD of K4 kissing-loop reporter: 0.0855 µM
Input ligand: arginine 13.2 mM
  apparent KD of K4 kissing-loop reporter: 0.103 µM
Input ligand: none
  apparent KD of K4 kissing-loop reporter: 0.0937 µM
[1]
  apparent KD of K4 kissing-loop reporter: 0.111 µM
[2]
  apparent KD of K4 kissing-loop reporter: 0.0791 µM

## AGGUACAAAAGUACCGCUAGAUCCACGGAAGGAGCGCCCGAAAGGGCAGGUAGGUCGCCGGGCAGUGAUGUUGCCGGAUCUAGCA [Omei KL Arginine A SS A v6]
Input ligand: FMN 200 uM
  apparent KD of K4 kissing-loop reporter: 0.162 µM
Input ligand: arginine 13.2 mM
  apparent KD of K4 kissing-loop reporter: 0.163 µM
Input ligand: none
  apparent KD of K4 kissing-loop reporter: 0.156 µM
[1]
  apparent KD of K4 kissing-loop reporter: 0.181 µM
[2]
  apparent KD of K4 kissing-loop reporter: 0.139 µM

## AGGUCUGCACGAAGGAGCGCCCUGACAGGUUGCUGCCGUGGGCAGUGAUGUUGCUCAGUCCGGCAGGUAGGUCGCGUGCAGACCU
Input ligand: FMN 200 uM
  apparent KD of K4 kissing-loop reporter: 0.136 µM
Input ligand: arginine 13.2 mM
  apparent KD of K4 kissing-loop reporter: 0.109 µM
Input ligand: none
  apparent KD of K4 kissing-loop reporter: 0.123 µM
[1]
  apparent KD of K4 kissing-loop reporter: 0.0975 µM
[2]
  apparent KD of K4 kissing-loop reporter: 0.161 µM

## AGUACAAUGGCGGCCGCCACUCAAUGGGCGACCGAAAGGUCGCAUCACUCAGUGAUGUUGAGUGAGAGGACCGGGCCUUUGUACA [Omei KL Tryp B SS B v8]
Input ligand: FMN 200 uM
  apparent KD of K4 kissing-loop reporter: 0.733 µM
Input ligand: arginine 13.2 mM
  apparent KD of K4 kissing-loop reporter: 0.497 µM
Input ligand: none
  apparent KD of K4 kissing-loop reporter: 0.611 µM
[1]
  apparent KD of K4 kissing-loop reporter: 0.595 µM
[2]
  apparent KD of K4 kissing-loop reporter: 0.27 µM

## AGUAGUUGGACGGCCGCCACUGGAACAGCUUUGCCAAAGGCAGAGCACUAGAGUGAUGUUCUAGCUAGGACCGGGUCCAACUACA [whbob_SS_Tryp_B_t16]
Input ligand: FMN 200 uM
  apparent KD of K4 kissing-loop reporter: 0.338 µM
Input ligand: arginine 13.2 mM
  apparent KD of K4 kissing-loop reporter: 0.0897 µM
Input ligand: none
  apparent KD of K4 kissing-loop reporter: 0.44 µM
[1]
  apparent KD of K4 kissing-loop reporter: 0.249 µM
[2]
  apparent KD of K4 kissing-loop reporter: 0.882 µM

## AGUAUGUAAUAUGGCAUAUUUAGAACUGAAGGAGCGCCGAAUAAGGCAGGUAGGUCGCGGAAUCAUGAGUGAUGUUCAUGACUAU [KL-SSArg-A26]
Input ligand: FMN 200 uM
  apparent KD of K4 kissing-loop reporter: 0.0806 µM
Input ligand: arginine 13.2 mM
  apparent KD of K4 kissing-loop reporter: 0.116 µM
Input ligand: none
  apparent KD of K4 kissing-loop reporter: 0.123 µM
[1]
  apparent KD of K4 kissing-loop reporter: 0.126 µM
[2]
  apparent KD of K4 kissing-loop reporter: 0.0911 µM

## AGUCCACUCUAAAGAGUGGACCUAAGGGAUACCAGUGAUGUUGGUCACCCUUGGCAGCCCACUGUCAUCGAUAAAGAUGGCAGCA
Input ligand: FMN 200 uM
  apparent KD of K4 kissing-loop reporter: 0.119 µM
Input ligand: arginine 13.2 mM
  apparent KD of K4 kissing-loop reporter: 0.106 µM
Input ligand: none
  apparent KD of K4 kissing-loop reporter: 0.113 µM
[1]
  apparent KD of K4 kissing-loop reporter: 0.117 µM
[2]
  apparent KD of K4 kissing-loop reporter: 0.117 µM

## AGUGAACGAGCGGCCGCCACUAAAUGAGUGAUGUUCGUGAGUAGUGCUGUUGUCAUGAUUGUUUUUAGGACCGGGUUCGAUGUUG [popplmullin]
Input ligand: FMN 200 uM
  apparent KD of K4 kissing-loop reporter: 0.719 µM
Input ligand: arginine 13.2 mM
  apparent KD of K4 kissing-loop reporter: 0.735 µM
Input ligand: none
  apparent KD of K4 kissing-loop reporter: 1.27 µM
[1]
  apparent KD of K4 kissing-loop reporter: 0.963 µM
[2]
  apparent KD of K4 kissing-loop reporter: 0.719 µM

## AGUGAGUGAUGUUCACUGUACGUGUCUGAAGGAGCGACAUCGAUGUCAGGUAGGUCGCAGACAUGUCAUCUAUGGUGCGUGACCA [Arg A SS t10]
Input ligand: FMN 200 uM
  apparent KD of K4 kissing-loop reporter: 0.124 µM
Input ligand: arginine 13.2 mM
  apparent KD of K4 kissing-loop reporter: 0.116 µM
Input ligand: none
  apparent KD of K4 kissing-loop reporter: 0.129 µM
[1]
  apparent KD of K4 kissing-loop reporter: 0.163 µM
[2]
  apparent KD of K4 kissing-loop reporter: 0.118 µM

## AGUGAUGUAUGGCGGUUUGUCACUUAUAAUCAGGAUAUAUAAACAAAUAGAAGGGAUGGCGGAGUGAUGUUCCGCCGGCCGCCAU [FMN A Exl V5]
Input ligand: FMN 200 uM
  apparent KD of K4 kissing-loop reporter: 0.17 µM
Input ligand: arginine 13.2 mM
  apparent KD of K4 kissing-loop reporter: 0.136 µM
Input ligand: none
  apparent KD of K4 kissing-loop reporter: 0.167 µM
[1]
  apparent KD of K4 kissing-loop reporter: 0.172 µM
[2]
  apparent KD of K4 kissing-loop reporter: 0.149 µM

## AGUGCACUGUCAGGAUAUAUACAGUGAUGUUGUGUAUGUCAGCAAGUCAAAGACUUGCUUUUCUGUGUAGAAGGGACUGUGUACA [Omei KL FMN B Exc A v2]
Input ligand: FMN 200 uM
  apparent KD of K4 kissing-loop reporter: 0.387 µM
Input ligand: arginine 13.2 mM
  apparent KD of K4 kissing-loop reporter: 0.134 µM
Input ligand: none
  apparent KD of K4 kissing-loop reporter: 0.154 µM
[1]
  apparent KD of K4 kissing-loop reporter: 0.141 µM
[2]
  apparent KD of K4 kissing-loop reporter: 0.148 µM

## AGUGUGCAAAAGCACACUCAGUACAAGGACAAGGAUAUCUACUAAUAGAGAAGGUGUCCUUUCCUUAGUGAUGUUAAGGAGCUGA [Omei KL FMN A SS D v2]
Input ligand: FMN 200 uM
  apparent KD of K4 kissing-loop reporter: 0.177 µM
Input ligand: arginine 13.2 mM
  apparent KD of K4 kissing-loop reporter: 0.295 µM
Input ligand: none
  apparent KD of K4 kissing-loop reporter: 0.339 µM
[1]
  apparent KD of K4 kissing-loop reporter: 0.347 µM
[2]
  apparent KD of K4 kissing-loop reporter: 0.368 µM

## AUACAGCGACGCGCUAGUGAUGUUAGCGAAGGAGCGACUCAUGAGUCAGGUAGGUCGCGCUAACGUGGUUACGAGAGUAACCAGU [Arg A Ex t1a]
Input ligand: FMN 200 uM
  apparent KD of K4 kissing-loop reporter: 0.0933 µM
Input ligand: arginine 13.2 mM
  apparent KD of K4 kissing-loop reporter: 0.0868 µM
Input ligand: none
  apparent KD of K4 kissing-loop reporter: 0.0936 µM
[1]
  apparent KD of K4 kissing-loop reporter: 0.0801 µM
[2]
  apparent KD of K4 kissing-loop reporter: 0.0894 µM

## AUCAGUUCAGCUGAUACCAGUCAGGAGUGAUGUUCCUGCUCGCGUCAGCCGCGUCGACAAGACCCUUGGCAGCAGCUCUAAGUGU [theeternabot_exclusion_KL_Theo_B_40]
Input ligand: FMN 200 uM
  apparent KD of K4 kissing-loop reporter: 0.114 µM
Input ligand: arginine 13.2 mM
  apparent KD of K4 kissing-loop reporter: 0.0981 µM
Input ligand: none
  apparent KD of K4 kissing-loop reporter: 0.11 µM
[1]
  apparent KD of K4 kissing-loop reporter: 0.103 µM
[2]
  apparent KD of K4 kissing-loop reporter: 0.11 µM

## AUCCAUAGUGAUGUUGUGAGCGGAGGCACCAAGGAUAUUGCCAGCCCAAGAAGGUGGGUCCCACACACCAGGCAUACAAGUCCGG [theeternabot_exclusion_KL_FMN_A_43]
Input ligand: FMN 200 uM
  apparent KD of K4 kissing-loop reporter: 1.04 µM
Input ligand: arginine 13.2 mM
  apparent KD of K4 kissing-loop reporter: 0.845 µM
Input ligand: none
  apparent KD of K4 kissing-loop reporter: 1.16 µM
[1]
  apparent KD of K4 kissing-loop reporter: 0.944 µM
[2]
  apparent KD of K4 kissing-loop reporter: 0.837 µM

## AUCGUUGUCUGAGGAUAUCGGUUAUCUGUAGUGAUGUUACAGUAUAUUGAUAUUAAAGUUUCUAUUCGAGAAGGCAGACUACGUA [JR_Nu_ExcFMNB_Sub022]
Input ligand: FMN 200 uM
  apparent KD of K4 kissing-loop reporter: 0.0714 µM
Input ligand: arginine 13.2 mM
  apparent KD of K4 kissing-loop reporter: 0.0654 µM
Input ligand: none
  apparent KD of K4 kissing-loop reporter: 0.0721 µM
[1]
  apparent KD of K4 kissing-loop reporter: 0.0589 µM
[2]
  apparent KD of K4 kissing-loop reporter: 0.0719 µM

— the supplement of paper PMC9170038
